Test results from US20220396632A1 (VERSEAU THERAPEUTICS, published 2022).
No end group written: not given here. *: point of attachment. Biotin = O=C1N[C@H]2[C@H](CS[C@H]2CCCCC(=O)*)N1

How the values were obtained:
P59A = biological target: T1, P59A (C-terminal Lys-biotin); assay: alanine-scan ELISA, streptavidin-immobilized biotin peptide [cont.]
T1 construct: alanine-scan peptide; also called Biotin PSGL-1(42-62) P59A peptide; 59P
T1 peptide: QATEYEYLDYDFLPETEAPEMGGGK

[1] = biological target: T2, Biotin PSGL-1(42-62) F53A peptide (C-terminal Lys-biotin); assay: as above
T2 peptide: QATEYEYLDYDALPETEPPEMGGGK

E47A = biological target: T3, E47A (C-terminal Lys-biotin); assay: as above
T3 construct: alanine-scan peptide; also called Biotin PSGL-1(42-62) E47A peptide; 47E
T3 peptide: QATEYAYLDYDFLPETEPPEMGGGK

[2] = biological target: T4, Biotin PSGL-1(42-62) Y46A peptide (C-terminal Lys-biotin); assay: as above
T4 peptide: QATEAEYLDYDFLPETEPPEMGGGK

E58A = biological target: T5, E58A (C-terminal Lys-biotin); assay: as above
T5 construct: alanine-scan peptide; also called Biotin PSGL-1(42-62) E58A peptide; 58E
T5 peptide: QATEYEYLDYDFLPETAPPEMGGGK

Y48A = biological target: T6, Y48A (C-terminal Lys-biotin); assay: as above
T6 construct: alanine-scan peptide; also called Biotin PSGL-1(42-62) Y48A peptide; 48Y
T6 peptide: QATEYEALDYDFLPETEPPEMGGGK

275-295 = biological target: T7, 275-295 (N-terminal acetyl; C-terminal Lys-biotin); assay: ELISA, streptavidin-immobilized biotin peptide [cont.]
T7 peptide: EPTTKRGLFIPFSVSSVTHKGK
Experimental: (§1) A typical ELISA experiment involved binding of a single concentration or serially diluted mAb in assay buffer (3% BSA in PBS containing 0.05% Tween®20, pH 7.4) onto BSA blocked high binding microtiter plate half-wells (Corning Cat. #3690), which contained PSGL-1 protein or streptavidin-immobilized biotin peptide. After incubation for 45 min. at 37° C., the plate was washed 3 times with wash buffer (PBS containing 0.05% Tween®20, pH 7.4), and an appropriate HRP-conjugated secondary antibody added (25 ul/well) (HRP goat anti-mouse or anti-human IgG). After 45 min. incubation at 37° C., the plate was washed and antibody bound to plate-immobilized target was determined at A450 nm using HRP substrate (3,3′5,5′-tetramethylbenzidine (TMB)). For each antibody, duplicate values were averaged and assay background subtracted.

225-250 = biological target: T8, 225-250 (N-terminal acetyl; C-terminal Lys-biotin); assay: as above
T8 peptide: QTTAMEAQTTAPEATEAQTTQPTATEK
Experimental: as §1

185-210 = biological target: T9, 185-210 (N-terminal acetyl; C-terminal Lys-biotin); assay: as above
T9 construct: also called Biotin PSGL-1(185-210) peptide
T9 peptide: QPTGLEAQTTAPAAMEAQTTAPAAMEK
Experimental: as §1

[3] = biological target: T10, Biotin PSGL-1(42-62) peptide, unmodified (human, C-terminal Lys-biotin); assay: as above
T10 construct: Residues 42-62 followed by GGGK-biotin; also called WT; wild-type
T10 peptide: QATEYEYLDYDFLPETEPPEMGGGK
Experimental: as §1

PSGL-1(120-140) = biological target: T11, PSGL-1(120-140) (N-terminal acetyl; C-terminal Lys-biotin); assay: as above
T11 construct: also called Biotin PSGL-1(120-140) peptide
T11 peptide: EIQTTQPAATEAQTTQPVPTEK
Experimental: as §1

131-150 = biological target: T12, 131-150 (N-terminal acetyl; C-terminal Lys-biotin); assay: as above
T12 construct: also called Biotin PSGL-1(131-150) peptide
T12 peptide: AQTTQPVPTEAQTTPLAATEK
Experimental: as §1

PSGL-1(305-320) = biological target: T13, PSGL-1(305-320); assay: as above
T13 construct: also called Biotin PSGL-1(305-320) peptide
T13 peptide: Ac-VNYPVGAPDHISVKQSK(Biotin)
Experimental: as §1

145-170 = biological target: T14, 145-170 (N-terminal acetyl; C-terminal Lys-biotin); assay: as above
T14 peptide: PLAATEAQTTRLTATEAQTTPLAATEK
Experimental: as §1

[4] = biological target: T15, Biotin PSGL-1(56-70) peptide (human); assay: as above
T15 peptide: Ac-ETEPPEMLRNSTDTTGK(Biotin)
Experimental: as §1

42-80 = biological target: T16, 42-80 (C-terminal Lys-biotin); assay: as above
T16 construct: also called Biotin PSGL-1(42-80) peptide
T16 peptide: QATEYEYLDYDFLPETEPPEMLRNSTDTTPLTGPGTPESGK
Experimental: as §1

245-265 = biological target: T17, 245-265 (N-terminal acetyl; C-terminal Lys-biotin); assay: as above
T17 peptide: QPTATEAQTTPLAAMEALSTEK
Experimental: as §1

260-280 = biological target: T18, 260-280 (N-terminal acetyl; C-terminal Lys-biotin); assay: as above
T18 construct: also called Biotin PSGL-1(260-280) peptide
T18 peptide: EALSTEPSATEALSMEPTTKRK
Experimental: as §1

63-80 = biological target: T19, 63-80 (N-terminal acetyl; C-terminal Lys-biotin); assay: as above
T19 construct: also called Biotin PSGL-1(63-80) peptide
T19 peptide: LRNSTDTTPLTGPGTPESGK
Experimental: as §1

PSGL-1(90-110) = biological target: T20, PSGL-1(90-110) (N-terminal acetyl; C-terminal Lys-biotin); assay: as above
T20 construct: also called Biotin PSGL-1(90-110) peptide
T20 peptide: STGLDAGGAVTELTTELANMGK
Experimental: as §1

205-230 = biological target: T21, 205-230 (N-terminal acetyl; C-terminal Lys-biotin); assay: as above
T21 peptide: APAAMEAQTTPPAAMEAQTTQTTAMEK
Experimental: as §1

165-190 = biological target: T22, 165-190 (N-terminal acetyl; C-terminal Lys-biotin); assay: as above
T22 construct: also called Biotin PSGL-1(165-190) peptide
T22 peptide: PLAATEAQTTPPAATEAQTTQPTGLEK
Experimental: as §1

B1: 9F9 (antibody, V domains shown)
VH: EVQLVETGGGLVQPKGSLKLSCAASGFTFNTNAMNWVRQAPGKGLEWVARIRSKSNNYATYYADSVKDRFTISRDDTQSMIYLQMNNLKTEDTGMYYCVRGGSYWYFDVWGAGTTVTVSS
VL: DVLMTQTPLSLPVSLGDQASISCRSSQSIVNSNGNTYLEWYLQKPGQSPKLLIYKVSNRFSGVPDRFSGSGSGTDFTLKISRVEAEDLGVYYCFQGSHVPWTFGGGTKLEIK
notes: Control anti-PSGL-1 mAb, recombinant; only variable domains given; also called 9F6
B1: binds (P59A); binds [1]; binds (E47A). B1: binds [2]; binds (E58A); binds (Y48A).

B2: 18K07 (antibody, V domains shown)
VH: QIQLVQSGPELKKPGETVKISCEASGYTFTTYGMNWVKQAPGKGLKWMGWINTYSGVPTYADDFQGRFAFSVETSATTAYLQINNLKNEDAATYFCARSDDTYYGFAYWGQGTLVTVSA
VL: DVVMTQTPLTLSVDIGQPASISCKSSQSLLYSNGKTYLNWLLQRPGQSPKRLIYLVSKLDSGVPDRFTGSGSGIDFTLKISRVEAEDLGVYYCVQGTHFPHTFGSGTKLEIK
notes: From mouse immunisation; only variable domains given
B2: no binding (tested: 10 nM) (275-295); no binding (tested: 10 nM) (225-250); no binding (tested: 10 nM) (185-210). B2: no binding (tested: 10 nM) [3]; no binding (tested: Log M -7 (100 nM)) (PSGL-1(120-140)); no binding (tested: 10 nM) (131-150). B2: no binding (tested: 10 nM) (PSGL-1(305-320)); no binding (tested: 10 nM) (145-170); no binding (tested: 10 nM) [4]. B2: no binding (tested: 10 nM) (42-80); no binding (tested: 10 nM) (245-265); no binding (tested: 10 nM) (260-280). B2: no binding (tested: 10 nM) (63-80); no binding (tested: 10 nM) (PSGL-1(90-110)); no binding (tested: 10 nM) (205-230). B2: no binding (tested: 10 nM) (165-190).
